Among the data in patent US20160122421A1 (IPIERIAN, published 2016) are Kd, koff and kon values, retold here.

For assay [1], the target named is T1, 383 amino acid recombinant tau (UniProt P10636-6 1-383, biotinylated where printed as biotin-rTau383 (position not given)).
T1 construct: also called rTau383
Kind of assay: Octet.

Assay [2] concerns the target eTau 4 (FIG. 17). Briefly: relative binding affinity, method not named (Table 4); fifth column, headed eTau 4.
For another assay, the target named is T2, eTau-4 peptide.
T2 construct: also called synthetic eTau4 polypeptide
T2 peptide: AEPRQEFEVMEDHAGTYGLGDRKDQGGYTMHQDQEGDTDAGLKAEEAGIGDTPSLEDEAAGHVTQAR
Kind of assay: relative binding affinity, method not named (Table 4); sixth column, headed eTau 4.

In another assay the target is T3, eTau 2.
T3 construct: member of the group m9
T3 polypeptide: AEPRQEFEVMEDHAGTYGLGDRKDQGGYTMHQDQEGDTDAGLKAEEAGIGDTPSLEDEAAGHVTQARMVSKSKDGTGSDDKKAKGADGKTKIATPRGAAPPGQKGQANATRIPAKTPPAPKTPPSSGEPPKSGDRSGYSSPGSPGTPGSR
Kind of assay: relative binding affinity, method not named (Table 4).

Assay [3] has as its target T1, 383 amino acid recombinant tau. Described as above.
The target of another assay is T4, eTau 1b.
T4 construct: member of the group m9
T4 polypeptide: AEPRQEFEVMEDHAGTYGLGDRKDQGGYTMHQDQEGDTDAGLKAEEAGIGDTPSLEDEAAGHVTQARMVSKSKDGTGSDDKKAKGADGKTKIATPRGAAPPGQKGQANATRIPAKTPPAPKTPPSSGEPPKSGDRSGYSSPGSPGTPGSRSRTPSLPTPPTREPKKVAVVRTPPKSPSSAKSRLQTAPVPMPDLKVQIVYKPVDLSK
The assay is described as above.

The target of assay [4] is eTau1a (amino acids 2-166 of fetal tau) (Homo sapiens (Human), UniProt P10636 2-541). The description is as above.

T1 sequence (P10636 other isoform, or with tags, fused parts or gaps limits assumed): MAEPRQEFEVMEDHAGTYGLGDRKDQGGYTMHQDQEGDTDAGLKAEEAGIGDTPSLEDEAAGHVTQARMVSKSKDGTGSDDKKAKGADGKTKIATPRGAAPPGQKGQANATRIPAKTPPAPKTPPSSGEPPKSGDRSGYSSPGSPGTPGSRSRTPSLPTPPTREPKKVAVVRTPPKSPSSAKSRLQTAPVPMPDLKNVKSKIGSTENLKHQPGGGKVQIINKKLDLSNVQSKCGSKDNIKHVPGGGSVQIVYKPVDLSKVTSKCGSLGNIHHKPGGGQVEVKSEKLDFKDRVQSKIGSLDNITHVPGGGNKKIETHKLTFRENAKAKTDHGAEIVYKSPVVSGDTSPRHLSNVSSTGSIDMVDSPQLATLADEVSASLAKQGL

B1: humanized IPN002 variant VH2/Vk2 (antibody, V domains shown)
VH: EVHLVESGGALVKPGGSLRLSCAASGFSFSKYGMSWVRQAPGKGLEWVATISSSGSRTYYPDSVKGRFTISRDNAKNTLYLQMNSLRAEDTAMYYCSISWDGAMDYWGQGTTVTVSS
VL: DVVMTQSPLSLPVTLGQPASISCKSSQSIVHSNGNTYLEWYLQKPGQSPQLLVYKVSNRFSGVPDRFSGSGSGTDFTLKISRVEAEDVGTYYCFQGSLVPWAFGGGTKVEIK
Take B1: the Kd was determined as 232 pM in assay [1]; 294 pM in assay [2]; 394 pM with eTau-4 peptide; 283 pM with eTau 2; 199 pM in assay [3]; 229 pM with eTau 1b. Moreover, the Kd in assay [4] is 327 pM. In assay [1], the koff was determined as 4.75e-05 s⁻¹. Moreover, the kon in assay [1] was found to be 205000 M⁻¹ s⁻¹.

B2: IPN002 (antibody, V domains shown)
VH: EVHLVESGGALVKPGGSLKLSCAASGFSFSKYGMSWVRQTPDKRLEWVATISSSGSRTYYPDSVKGQFTISRDNAKNTLYLQMSSLKSEDTAMYYCSISWDGAMDYWGQGTSVTVSS
VL: DVLMTQTPLSLPVSLGDQASISCKSSQSIVHSNGNTYLEWYLQKPGQSPKLLVYKVSNRFSGVPDRFSGSGSGTDFTLKISRVEAEDLGTYYCFQGSLVPWAFGGGTKLEIK
notes: It is the murine parental antibody; also called IPN2; IPN-2
Turning to B2, in assay [1], the Kd was found to be 206 pM, the koff was 4.78e-05 s⁻¹ and the kon is 233000 M⁻¹ s⁻¹.

B3: VH1/Vk1 (antibody, V domains shown)
VH: EVHLVESGGALVKPGGSLRLSCAASGFSFSKYGMSWVRQAPGKGLEWVATISSSGSRTYYPDSVKGRFTISRDNAKNTLYLQMSSLKSEDTAMYYCSISWDGAMDYWGQGTSVTVSS
VL: DVLMTQSPLSLPVTLGQPASISCKSSQSIVHSNGNTYLEWYLQKPGQSPQLLVYKVSNRFSGVPDRFSGSGSGTDFTLKISRVEAEDVGTYYCFQGSLVPWAFGGGTKVEIK
notes: member of the group m7; also called humanized IPN002 variant VH1/Vk1
In the case of B3, the Kd in assay [1] was 42.6 pM; in assay [2], 358 pM; in the assay with eTau-4 peptide, 577 pM; with eTau 2 it was 465 pM; in assay [3], 183 pM; with eTau 1b, 737 pM. This molecule also came in with a Kd in assay [4] of 294 pM. In addition, the koff in assay [1] turned out to be 8.75e-06 s⁻¹. Besides, the kon in assay [1] turned out to be 206000 M⁻¹ s⁻¹.

B4: VH2/Vk4 (antibody, V domains shown)
VH: EVHLVESGGALVKPGGSLRLSCAASGFSFSKYGMSWVRQAPGKGLEWVATISSSGSRTYYPDSVKGRFTISRDNAKNTLYLQMNSLRAEDTAMYYCSISWDGAMDYWGQGTTVTVSS
VL: DVVMTQSPLSLPVTLGQPASISCKSSQSIVHSNGNTYLEWYLQKPGQSPQLLIYKVSNRFSGVPDRFSGSGSGTDFTLKISRVEAEDVGVYYCFQGSLVPWAFGGGTKVEIK
notes: member of the group m7; also called humanized IPN002 variant VH2/Vk4
In the case of B4, the Kd in assay [1] is 1660 pM; in assay [2] it was 418 pM; in the assay with eTau-4 peptide, 671 pM; in the assay with eTau 2, 354 pM; in assay [3], 248 pM; in the assay with eTau 1b, 520 pM. The Kd in assay [4] came out at 343 pM. Moreover, the koff in assay [1] was 0.000236 s⁻¹. Further, the kon in assay [1] stood at 142000 M⁻¹ s⁻¹.

B5: humanized IPN002 variant VH2/Vk1 (antibody, V domains shown)
VH: EVHLVESGGALVKPGGSLRLSCAASGFSFSKYGMSWVRQAPGKGLEWVATISSSGSRTYYPDSVKGRFTISRDNAKNTLYLQMNSLRAEDTAMYYCSISWDGAMDYWGQGTTVTVSS
VL: DVLMTQSPLSLPVTLGQPASISCKSSQSIVHSNGNTYLEWYLQKPGQSPQLLVYKVSNRFSGVPDRFSGSGSGTDFTLKISRVEAEDVGTYYCFQGSLVPWAFGGGTKVEIK
As for B5, the Kd in assay [2] came out at 369 pM; with eTau-4 peptide it was 321 pM; in the assay with eTau 2, 225 pM; in assay [3], 242 pM; with eTau 1b, 215 pM; in assay [4] it was 281 pM.

B6: VH3/Vk3 (antibody, V domains shown)
VH: EVQLVESGGALVKPGGSLRLSCAASGFSFSKYGMSWVRQAPGKGLEWVATISSSGSRTYYPDSVKGRFTISRDNAKNTLYLQMNSLRAEDTAMYYCSISWDGAMDYWGQGTTVTVSS
VL: DVVMTQSPLSLPVTLGQPASISCKSSQSIVHSNGNTYLEWYLQKPGQSPQLLVYKVSNRFSGVPDRFSGSGSGTDFTLKISRVEAEDVGVYYCFQGSLVPWAFGGGTKVEIK
notes: member of the group m7; also called humanized IPN002 variant VH3/Vk3
For B6, the Kd amounted to 169 pM in assay [1]; 469 pM in assay [2]; 665 pM in the assay with eTau-4 peptide; 471 pM in the assay with eTau 2; 224 pM in assay [3]; 689 pM in the assay with eTau 1b. Moreover, in assay [4], the Kd was 220 pM. The koff in assay [1] was 3.15e-05 s⁻¹. In assay [1], the kon was determined as 187000 M⁻¹ s⁻¹.

B7: VH3/Vk2 (antibody, V domains shown)
VH: EVQLVESGGALVKPGGSLRLSCAASGFSFSKYGMSWVRQAPGKGLEWVATISSSGSRTYYPDSVKGRFTISRDNAKNTLYLQMNSLRAEDTAMYYCSISWDGAMDYWGQGTTVTVSS
VL: DVVMTQSPLSLPVTLGQPASISCKSSQSIVHSNGNTYLEWYLQKPGQSPQLLVYKVSNRFSGVPDRFSGSGSGTDFTLKISRVEAEDVGTYYCFQGSLVPWAFGGGTKVEIK
notes: member of the group m7; also called humanized IPN002 variant VH3/Vk2
As to B7, the Kd in assay [1] was determined as 577 pM; in assay [2], 589 pM; with eTau-4 peptide, 701 pM; in the assay with eTau 2 it was 408 pM; in assay [3] it was 258 pM; with eTau 1b it was 614 pM. Also, the Kd in assay [4] was found to be 282 pM. Further, in assay [1], the koff was 0.000107 s⁻¹. In addition, in assay [1], the kon was 185000 M⁻¹ s⁻¹.

B8: VH1/Vk4 (antibody, V domains shown)
VH: EVHLVESGGALVKPGGSLRLSCAASGFSFSKYGMSWVRQAPGKGLEWVATISSSGSRTYYPDSVKGRFTISRDNAKNTLYLQMSSLKSEDTAMYYCSISWDGAMDYWGQGTSVTVSS
VL: DVVMTQSPLSLPVTLGQPASISCKSSQSIVHSNGNTYLEWYLQKPGQSPQLLIYKVSNRFSGVPDRFSGSGSGTDFTLKISRVEAEDVGVYYCFQGSLVPWAFGGGTKVEIK
notes: member of the group m7; also called humanized IPN002 variant VH1/Vk4
As to B8, the Kd in assay [1] came out at 571 pM; in assay [2] it was 269 pM; with eTau-4 peptide, 869 pM; with eTau 2 it was 427 pM; in assay [3], 286 pM; with eTau 1b it was 597 pM. Also, in assay [4], binding was put at a Kd of 252 pM. For the same molecule, in assay [1], the koff was found to be 9.52e-05 s⁻¹. Further, in assay [1], the kon worked out at 167000 M⁻¹ s⁻¹.

B9: VH3/Vk1 (antibody, V domains shown)
VH: EVQLVESGGALVKPGGSLRLSCAASGFSFSKYGMSWVRQAPGKGLEWVATISSSGSRTYYPDSVKGRFTISRDNAKNTLYLQMNSLRAEDTAMYYCSISWDGAMDYWGQGTTVTVSS
VL: DVLMTQSPLSLPVTLGQPASISCKSSQSIVHSNGNTYLEWYLQKPGQSPQLLVYKVSNRFSGVPDRFSGSGSGTDFTLKISRVEAEDVGTYYCFQGSLVPWAFGGGTKVEIK
notes: member of the group m7; also called humanized IPN002 variant VH3/Vk1
Take B9: the Kd turned out to be 1990 pM in assay [1]; 454 pM in assay [2]; 921 pM with eTau-4 peptide; 705 pM with eTau 2; 236 pM in assay [3]; 529 pM with eTau 1b. In assay [4], this molecule gave a Kd of 241 pM. Moreover, in assay [1], the koff was 0.000257 s⁻¹. In addition, the kon in assay [1] is 129000 M⁻¹ s⁻¹.

B10: VH1/Vk2 (antibody, V domains shown)
VH: EVHLVESGGALVKPGGSLRLSCAASGFSFSKYGMSWVRQAPGKGLEWVATISSSGSRTYYPDSVKGRFTISRDNAKNTLYLQMSSLKSEDTAMYYCSISWDGAMDYWGQGTSVTVSS
VL: DVVMTQSPLSLPVTLGQPASISCKSSQSIVHSNGNTYLEWYLQKPGQSPQLLVYKVSNRFSGVPDRFSGSGSGTDFTLKISRVEAEDVGTYYCFQGSLVPWAFGGGTKVEIK
notes: member of the group m7; also called humanized IPN002 variant VH1/Vk2
For B10, the Kd is 446 pM in assay [1]; 321 pM in assay [2]; 633 pM in the assay with eTau-4 peptide; 361 pM in the assay with eTau 2; 121 pM in assay [3]; 558 pM with eTau 1b. Further, binding in assay [4] was characterised by a dissociation constant (Kd) of 212 pM. For the same molecule, the koff in assay [1] came to 8.74e-05 s⁻¹. In addition, the kon in assay [1] was determined as 196000 M⁻¹ s⁻¹.

B11: VH3/Vk4 (antibody, V domains shown)
VH: EVQLVESGGALVKPGGSLRLSCAASGFSFSKYGMSWVRQAPGKGLEWVATISSSGSRTYYPDSVKGRFTISRDNAKNTLYLQMNSLRAEDTAMYYCSISWDGAMDYWGQGTTVTVSS
VL: DVVMTQSPLSLPVTLGQPASISCKSSQSIVHSNGNTYLEWYLQKPGQSPQLLIYKVSNRFSGVPDRFSGSGSGTDFTLKISRVEAEDVGVYYCFQGSLVPWAFGGGTKVEIK
notes: member of the group m7; also called humanized IPN002 variant VH3/Vk4
Consider B11, for which the Kd came to 475 pM in assay [1]; 381 pM in assay [2]; 586 pM with eTau-4 peptide; 447 pM with eTau 2; 255 pM in assay [3]; 382 pM with eTau 1b. This molecule showed a Kd in assay [4] of 216 pM. The koff in assay [1] was 0.0001 s⁻¹. Further, the kon in assay [1] is 211000 M⁻¹ s⁻¹.

B12: VH1/Vk3 (antibody, V domains shown)
VH: EVHLVESGGALVKPGGSLRLSCAASGFSFSKYGMSWVRQAPGKGLEWVATISSSGSRTYYPDSVKGRFTISRDNAKNTLYLQMSSLKSEDTAMYYCSISWDGAMDYWGQGTSVTVSS
VL: DVVMTQSPLSLPVTLGQPASISCKSSQSIVHSNGNTYLEWYLQKPGQSPQLLVYKVSNRFSGVPDRFSGSGSGTDFTLKISRVEAEDVGVYYCFQGSLVPWAFGGGTKVEIK
notes: member of the group m7; also called humanized IPN002 variant VH1/Vk3
With B12, the Kd in assay [1] came out at 1280 pM; in assay [2], 478 pM; with eTau-4 peptide, 761 pM; in the assay with eTau 2, 444 pM; in assay [3], 175 pM; with eTau 1b it was 590 pM. In assay [4], the Kd was 291 pM. Also, the koff in assay [1] is 0.000233 s⁻¹. Also, the kon in assay [1] turned out to be 182000 M⁻¹ s⁻¹.
